Laboratory results published in doi:10.1101/2025.06.18.660405 (bioRxiv, 2025).
Where two headings read alike, the source gives them in different places.

How the values were obtained:
Test in all cases: pull-down
MBP-NOP58 ΔNLS (human) = MBP-NOP58 ΔNLS (human) (UniProt Q9Y2X3)
[1] = target: T1, MBP fused to the C-terminal NLS IDR of NAP57 (92aa) (human)
T1 sequence (O60832 whole entry, looked up): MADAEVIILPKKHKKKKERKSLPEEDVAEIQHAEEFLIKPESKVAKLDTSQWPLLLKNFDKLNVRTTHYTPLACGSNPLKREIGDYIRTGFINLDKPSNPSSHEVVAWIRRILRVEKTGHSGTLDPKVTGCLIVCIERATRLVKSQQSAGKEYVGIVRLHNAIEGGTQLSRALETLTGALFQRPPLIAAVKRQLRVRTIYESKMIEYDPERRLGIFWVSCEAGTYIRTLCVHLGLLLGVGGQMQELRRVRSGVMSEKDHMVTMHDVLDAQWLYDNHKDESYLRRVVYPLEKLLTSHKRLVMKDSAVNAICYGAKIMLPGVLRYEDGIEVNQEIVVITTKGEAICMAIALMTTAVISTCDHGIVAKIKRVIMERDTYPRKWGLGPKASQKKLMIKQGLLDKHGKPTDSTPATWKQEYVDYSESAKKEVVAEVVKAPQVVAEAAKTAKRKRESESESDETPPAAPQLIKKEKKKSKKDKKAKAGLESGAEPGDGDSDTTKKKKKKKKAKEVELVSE

[2] = target: T2, MBP-fibrillarin (full-length) (human, UniProt P22087 1-321)
T2 sequence (looked up): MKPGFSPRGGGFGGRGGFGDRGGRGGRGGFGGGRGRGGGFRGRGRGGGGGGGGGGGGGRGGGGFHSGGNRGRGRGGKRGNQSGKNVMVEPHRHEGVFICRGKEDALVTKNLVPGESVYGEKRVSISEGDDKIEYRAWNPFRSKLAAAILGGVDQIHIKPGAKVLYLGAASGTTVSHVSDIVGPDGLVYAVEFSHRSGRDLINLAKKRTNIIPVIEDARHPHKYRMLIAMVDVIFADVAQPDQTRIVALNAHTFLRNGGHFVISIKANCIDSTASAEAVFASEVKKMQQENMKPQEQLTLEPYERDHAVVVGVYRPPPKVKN

MBP-GAR1 (full-length) = target: T3, MBP-GAR1 (full-length) (human, UniProt Q9NY12 1-217)
T3 sequence (looked up): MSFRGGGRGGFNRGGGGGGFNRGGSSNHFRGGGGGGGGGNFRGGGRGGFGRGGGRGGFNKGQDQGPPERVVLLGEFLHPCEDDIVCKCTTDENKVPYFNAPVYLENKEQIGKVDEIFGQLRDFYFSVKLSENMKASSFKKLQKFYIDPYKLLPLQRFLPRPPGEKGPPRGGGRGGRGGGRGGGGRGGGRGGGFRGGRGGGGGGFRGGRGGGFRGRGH

[3] = target: fibrillarin F>S (six phenylalanines of the N-terminal GF-IDR replaced with serines) (human) (UniProt P22087)
[4] = target: fibrillarin F>S (six phenylalanines of the N-terminal GF-IDR replaced with serines) (human) (UniProt P22087); remark: listed apart in the source

MBP-NOP58 ΔNLS (human), sequence (Q9Y2X3 whole entry, stated change not applied, the tested form may be a part): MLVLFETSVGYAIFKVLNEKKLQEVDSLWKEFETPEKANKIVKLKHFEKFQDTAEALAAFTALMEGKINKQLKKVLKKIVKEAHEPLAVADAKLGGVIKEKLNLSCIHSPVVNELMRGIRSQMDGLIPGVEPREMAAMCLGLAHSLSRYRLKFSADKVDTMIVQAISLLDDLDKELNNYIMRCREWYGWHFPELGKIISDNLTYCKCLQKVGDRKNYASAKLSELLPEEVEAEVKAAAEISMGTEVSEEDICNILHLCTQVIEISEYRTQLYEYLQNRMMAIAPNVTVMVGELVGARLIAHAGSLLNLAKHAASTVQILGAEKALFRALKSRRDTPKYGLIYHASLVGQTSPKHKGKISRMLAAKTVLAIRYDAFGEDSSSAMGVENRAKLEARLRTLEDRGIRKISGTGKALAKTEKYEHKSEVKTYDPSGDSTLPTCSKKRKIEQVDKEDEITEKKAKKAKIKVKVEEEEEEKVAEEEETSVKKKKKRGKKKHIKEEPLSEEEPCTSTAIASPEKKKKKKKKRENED

B1: GFP-Nopp140 (phosphorylated) (natural protein)
chain: MADAGIRRVVPSDLYPLVLGFLRDNQLSEVANKFAKATGATQQDANASSLLDIYSFWLKSAKVPERKLQANGPVAKKAKKKASSSDSEDSSEEEEEVQGPPAKKAAVPAKRVGLPPGKAAAKASESSSSEESSDDDDEEDQKKQPVQKGVKPQAKAAKAPPKKAKSSDSDSDSSSEDEPPKNQKPKITPVTVKAQTKAPPKPARAAPKIANGKAASSSSSSSSSSSSDDSEEEKAAATPKKTVPKKQVVAKAPVKAATTPTRKSSSSEDSSSDEEEEQKKPMKNKPGPYSSVPPPSAPPPKKSLGTQPPKKAVEKQQPVESSEDSSDESDSSSEEEKKPPTKAVVSKATTKPPPAKKAAESSSDSSDSDSSEDDEAPSKPAGTTKNSSNKPAVTTKSPAVKPAAAPKQPVGGGQKLLTRKADSSSSEEESSSSEEEKTKKMVATTKPKATAKAALSLPAKQAPQGSRDSSSDSDSSSSEEEEEKTSKSAVKKKPQKVAGGAAPSKPASAKKGKAESSNSSSSDDSSEEEEEKLKGKGSPRPQAPKANGTSALTAQNGKAAKNSEEEEEEKKKAAVVVSKSGSLKKRKQNEAAKEAETPQAKKIKLQTPNTFPKRKKGEKRASSPFRRVREEEIEVDSRVADNSFDAKRGAAGDWGERANQVLKFTKGKSFRHEKTKKKRGSYRGGSISVQVNSIKFDSE
modifications: serines of the acidic serine repeats phosphorylated (expressed in insect cells to be fully phosphorylated)
Work on B1 yielded a GFP-Nopp140 pulled down relative to WT MBP-NOP58 (MBP-NOP58 ΔNLS (human)) of 20%.

B2: Nopp140 (phosphorylated, hexa histidine tagged) (natural protein)
chain: B1 chain
modifications: serines of the acidic serine repeats phosphorylated (expressed in insect cells to be fully phosphorylated)
Work on B2 yielded a Nopp140 pulled down relative to full-length NAP57 [1] of 50%.

B3: GST-GAR1 (natural protein, human, UniProt Q9NY12 1-217, looked up)
chain: T3 sequence (looked up)
For B3, the binding result [2] was “binds”, the binding result (MBP-GAR1 (full-length)) was “binds” and the reduction of binding relative to wild-type fibrillarin [3] was 35%. For the same binder, the reduction of binding relative to wild-type fibrillarin [4] was 40%.
